Results reported in IntAct's records for PubMed 25096571.

Target: FOXP3, Q9BZS1-1
Sequence (Q9BZS1 whole entry): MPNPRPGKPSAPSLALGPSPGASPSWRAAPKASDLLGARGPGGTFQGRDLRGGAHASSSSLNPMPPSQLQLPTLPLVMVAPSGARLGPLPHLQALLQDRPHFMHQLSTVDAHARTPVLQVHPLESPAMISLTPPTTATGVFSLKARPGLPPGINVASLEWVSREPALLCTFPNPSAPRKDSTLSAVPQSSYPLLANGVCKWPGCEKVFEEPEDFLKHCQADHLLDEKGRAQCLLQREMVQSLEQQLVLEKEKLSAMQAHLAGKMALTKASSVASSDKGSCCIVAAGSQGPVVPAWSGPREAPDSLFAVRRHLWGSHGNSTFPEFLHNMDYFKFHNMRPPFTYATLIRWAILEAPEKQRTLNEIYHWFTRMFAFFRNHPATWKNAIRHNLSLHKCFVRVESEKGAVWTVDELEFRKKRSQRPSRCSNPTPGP

## Serine/threonine-protein kinase pim-1 (Homo sapiens), P11309-1 K67M
  effect of a mutation on the interaction: disrupting interaction strength
